3 molecules from PMC10715145 can be followed below.

Data set [1] deals with T1, PacCZF-MBP (Alternaria alternata (tangerine …, UniProt A0A177DU84 1-150)). Kind of data set: EMSA; […]; 28°C for 20 min; […]; buffer, […]. The conditions noted are these: protein: recombinant; tags: MBP (pMAL-c5x); label: 3'-biotin; blunt. A general note: A gel shift assay detects complexes by their altered migration in electrophoresis.
Data set [2] concerns the target T1, PacCZF-MBP. Kind of data set: competition; excess unlabeled mutant vs labeled WT ACTT6 probe; […]; 28°C for 20 min; […]; buffer, […]. The conditions noted are these: protein: recombinant; tags: MBP (pMAL-c5x); label: unlabeled; blunt.

B1: ACTTR promoter WT probe (dsDNA)
DNA 1: ACGAACCACATCCTCGCCAAGGACATGAATGACACA
DNA 2: TGTGTCATTCATGTCCTTGGCGAGGATGTGGTTCGT
As to B1, the binding result with PacCZF-MBP [1] was “binds”.

B2: ACTT6 promoter WT probe (dsDNA)
DNA 1: CGTGACTGACATCCCGCCAAGGCTAACCATCCGGGA
DNA 2: TCCCGGATGGTTAGCCTTGGCGGGATGTCAGTCACG
B2: the binding result in the data set with PacCZF-MBP [1] is reported as “binds”.

B3: ACTT6 promoter mutant competitor (dsDNA)
DNA 1: CGTGACTGACATCCCGAACCGGCTAACCATCCGGGA
DNA 2: TCCCGGATGGTTAGCCGGTTCGGGATGTCAGTCACG
Turning to B3, the binding result with PacCZF-MBP [2] is reported as “no binding”.
